Results on 40 sequences are retold here after the nanobody polyreactivity screen of Harvey et al. (2022).

The data set in a line: yeast display, Sf9 membrane polyspecificity reagent, FACS + sequencing; frameworks hold sequencing errors. An outline of the steps:
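After 36–48 hours of galactose induction, yeast (Saccharomyces cerevisiae BJ5465) displaying a synthetic nanobody library were stained at 4 °C for 1 hour with 10% biotinylated, detergent-solubilized Sf9 membrane reagent. Streptavidin microbeads enriched the stained cells before FACS sorting into low and high (top ~1%) gates on anti-HA and streptavidin fluorescence. Each clone's polyreactivity label reflects its gate of origin.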
As to “QVQLVESGGGLVQAGGSLRISCAASGRTFPGYTMGWYRQAPGKERELVAAITRVGTTYYADSVKGRFTISRDNAKNTVYLQMNSLKPEDTAVYYCAAVISQGFIRYYYWGQGTQVTVSS”, the “polyreactivity (PSR sort gate)” value is on record as “high polyreactivity”.
Regarding “QVQLVESGGGLVQAGGSLRISCAASGRTFRKYAMGWYRQAPGKERELVAAISWSGGSTYYANSVKGRFTISRDNAKNTVYLQMNSLKPEDTAVYYCAAVPVHTGSLYWGFTSGYDYWGQGTQVTVSS”, the “polyreactivity (PSR sort gate)” value was “low polyreactivity”.
As for “QVQLVESGGGLVQAGGSLRISCAASGRTFVRYAMGWYRQAPGKERELVAAIDSSGGRTYYADSVKGRFTISRDKAKNTVYLQMNSLKPEDTAVYYCNARRLASYRGYSWGQGTQVTVSS”, the “polyreactivity (PSR sort gate)” value is given as “high polyreactivity”.
Turning to “QVQLVESGGGLVQAGGSLRISCAASGRTFWRNAMGWYRQAPAKERELVAAISRGGSTNYADSVKGRFTISRDNAKNTVYLQMNSLKPEDTAVYYCAARYYYRYNYWGQGTQVTVSS”, the “polyreactivity (PSR sort gate)” value was “high polyreactivity”.
On to “QVQLVESGGGLVQAGGSLRISCAASGRTLRPNAMGWYRQAPGKERELVAAITWSGGRTYYADSVKGRFTISRDNAKNTVYLQMNSLKPGDTAVYYCAADYGYYRGGVYFQKLKFDYWGQGTQVTVSS”, for which the “polyreactivity (PSR sort gate)” value is recorded as “high polyreactivity”.
In the case of “QVQLVESGGGLVQAGGSLRISCAASGSIFGSYTMGWYRQAPGKERELVAVINWSGDRTYYADSVKGRFTISRDNAKNTVYLQMNSLKPEDTAVYYCAARERAGYSRIRYNYWGQGTQVTVSS”, the “polyreactivity (PSR sort gate)” value was “low polyreactivity”.
For the sequence “QVQLVESGGGLVQAGGSLRISCAASGSIFGVNAMGWYRQAPGKERELVASITGGDSTNYADSVKGRFTISRDNAKNTVYLQMNSLKPEDNEVYYCAKDHYYRYEEGDYWGQATQVTVSS”, the “polyreactivity (PSR sort gate)” value is “low polyreactivity”.
Next, “QVQLVESGGGLVQAGGSLRISCAASGSIFHFNAMGWYRQAPGKERELVARISIGGGSTYYADSVKGRFTISRDNAKNTVYFQMKSLKPEDTAVYYCGVDGSPRYKYDYWGQGTQVNVSS”: “high polyreactivity”; “QVQLVESGGGLVQAGGSLRISCAASGSIFPAYDMGWYRQAPGKERELVAAITRGGSTDYADSVNGRFTISRDNAKNTVYLQMNSLKPEDTAVYFCAKRGYYYYHYVSGKPEDYWGQGTQVTVSS”: “low polyreactivity”; “QVQLVESGGGLVQAGGSLRISCAASGSIFPRYAMGWYRQAPGTERELVATISASGTDTYYADSVKGRFTISRDNAKNTVYLQMNSLKPEDTAVYYCAAGGYPGGEDYWGQGTQVTVSS”: “low polyreactivity”.
Consider “QVQLVESGGGLVQAGGSLRISCAASGSIFRNYAMGWYRQAPGKERELVAAISRNGGTTYYADSVKGRFTISRDNAKNTVYLQMNSLKPEDTAVYYCARLYYTQKDSKTGYGYWGQGTQVTVSS”, for which the “polyreactivity (PSR sort gate)” value is reported as “high polyreactivity”.
With “QVQLVESGGGLVQAGGSLRISCAASGSIFSYYAMGWYRQAPGTERELVAAITRGGTTYYADSVKGRFTISRDNAKNTVYLQMNSLKPEDTAVYYCAVYYYSGTAGYRYGYWGQGTQVTVSS”, the “polyreactivity (PSR sort gate)” value is “high polyreactivity”.
Take “QVQLVESGGGLVQAGGSLRISCAASGSIFVTNAMGWYRQAPGKERELVAAISSGGNTNYADSVKGLFTISRDNAKNTVYLQMNSLKPEDTAVYYCAKDPDKVDYVDMDYWGQGTQVTVSS”: the “polyreactivity (PSR sort gate)” value is recorded as “low polyreactivity”.
As to “QVQLVESGGGLVQAGGSLRISCAASGSIFVYYGMGWYRQAPGKERELVAAISSGGSTHYADSVKGRFTISRDNAKNTVYLQMNSLKPEDTAVYYCAAERFFWLRSYPRYYYWGQGTQVTVSS”, the “polyreactivity (PSR sort gate)” value is “low polyreactivity”.
Turning to “QVQLVESGGGLVQAGGSLRISCAASGSIYSAYVMGWYRQAPGKERELVSAITRSGGSTYYADSVKGRFTISRDNAKNTVYFQMNSLKPEDTAVYYCAVDYLLHYYSYIEDYWGQGTQVTVSS”, the “polyreactivity (PSR sort gate)” value was “low polyreactivity”.
The value for “QVQLVESGGGLVQAGGSLRISCAASGSIYWDNAMGWYRQAPGQESELVAAITSSGDTTYYADSVKGRFTISRDNAKNTVYLQMNSQKPEDTAVYYCAADYYTAYYVTLDYWGQGTQVTVSS” was “low polyreactivity”; that for “QVQLVESGGGLVQAGGSLRISCAASGSNFIRYAKGWYRQAPGKEMELVAAIRWSAGSTSYADSVKGRFTISRDNAKNTVYLQMNSLKPEDTAVYYCAAGPDYGWRRYDYWGQGTQVTVSS” was “low polyreactivity”; that for “QVQLVESGGGLVQAGGSLRISCAASGSNFPYYAMGWYRQAPWQERELVAAISRGGGTTYYADSVKGRFTISRDNAKNTVYLQMISLKPEDTAVYYCAARQWRISTPYDYWGQGTQVTVSS” was “high polyreactivity”.
On to “QVQLVESGGGLVQAGGSLRISCAASGSNFRTYVMGWYRQAPGKERELVAAISRRGGSTYYADSVKGLFTISRDNAKKTVYLQMNSLKPEDTAVYYCAAEDEYSLEFSTLDYWGQGTQVTVSS”, for which the “polyreactivity (PSR sort gate)” value is reported as “high polyreactivity”.
In the case of “QVQLVESGGGLVQAGGSLRISCAASGSSFHDYAMGWYTQAPGKERELVAAISSSGTSTYYADSVKGRFTISRDNANNTVYLQMNILKPEDTAVYYCAVYAISFAWSGWTYEDYWGQGTQVNVSS”, the “polyreactivity (PSR sort gate)” value is recorded as “low polyreactivity”.
Next, “QVQLVESGGGLVQAGGSLRISCAASGSTFAYNAMGWYIQAPGKERELVAVISKGGGRTYYADSVKGRFTISRDNAKNTVYLQINSLKPEDTAVYYCAARYIPVYTREREYNYWGQGTQVTVSS”: “high polyreactivity”; “QVQLVESGGGLVQAGGSLRISCAASGSTFEYYAMGWYRQAPGKERELVATISIDGRTNYADSVKGRFTISRDNAKNTVYLQMNSLKPEDTAVYYCAARPYWRHRYDYWGQGTQVTVSS”: “low polyreactivity”.
For “QVQLVESGGGLVQAGGSLRISCAASGSTFFRNAMGRYRQAPGKERELVAAITWSGGSTYYADSVKGRFTISRDNAKNTVYLQMNSLKPEDTAVYYFAAGLSYWTPHYYPFDYWGQGTQVTVSS”, the “polyreactivity (PSR sort gate)” value was “low polyreactivity”.
For the sequence “QVQLVESGGGLVQAGGSLRISCAASGSTFFRYAMGWYRQAPGKERELVAAIYKSGASTYYADSVKGRFTISRDNPKNSVYLQMNSLKPEDTGVYYCNADVKNSSAREWQYGYDYWGQGTQVTVSS”, the “polyreactivity (PSR sort gate)” value was “low polyreactivity”.
Next, “QVQLVESGGGLVQAGGSLRISCAASGSTFGEYALGWYRQAPGKERELVAVITSDDNTYYADSVKGRFTISRDNAKNTVYLQMNSLKPEDTAVYYCATDDRRRFKYWGQGTQVTVSS”: “high polyreactivity”.
Consider “QVQLVESGGGLVQAGGSLRISCAASGSTFGGYVLGWYRPAPGKERELVAAISRSGASTYYADSVKGRFTISRDNAKNTVYLQMNSLKPEDTAVYYCAAYQARGLDYWGQGTQVTVSS”, for which the “polyreactivity (PSR sort gate)” value was “high polyreactivity”.
Consider “QVQLVESGGGLVQAGGSLRISCAASGSTFGRYAMGWYRQAPGKEREFVAAITQGGTNTYYADSVKGRFTISRDNAKNTVYLQMNSLKPEDTAVYYCARVRRYPLRYNYWGQGTQVTVSS”, for which the “polyreactivity (PSR sort gate)” value is recorded as “high polyreactivity”.
Regarding “QVQLVESGGGLVQAGGSLRISCAASGSTFSPYAMGWYRQAPRKERELFAAISASGGGTYYADSVKGRFTISRDNAKNTVYLQMNSLKPEDTAVYYCARDYGWDISKGRYGYWGQGTQVTVSS”, the “polyreactivity (PSR sort gate)” value is “low polyreactivity”.
Regarding “QVQLVESGGGLVQAGGSLRISCAASGSTFSRNAMVWYRQAPGKERELVATISRSGRTNYADSVKGRFTISRDNAKNTVYLQMNSLKPEDTAVYYCNAGYRRSYEYWGQCTQVTVSS”, the “polyreactivity (PSR sort gate)” value is listed as “low polyreactivity”.
The value for “QVQLVESGGGLVQAGGSLRISCAASGSTFWGYAMGWYRQAPGKERELVATINQSAGSTYYADSVKGRFTISRDNAKNTVYLQMNSLKPEDTAVYYCAAEARVQFSYDYWGQGTQVTVSS” was “low polyreactivity”; that for “QVQLVESGGGLVQAGGSLRISCAASGSTFWGYDKGWYRQAPGKERELVAAITRNGGGTYYADSVKGRFTISRDNAKNTVYLQMNSLKPEDTAVYYCASTRGAYYLYGGHKMDYWGQGSQVTVSS” was “high polyreactivity”.
Consider “QVQLVESGGGLVQAGGSLRISCAASGSTLLRNAMGWYRQAPGKERELVAVITYSGGSTYYADSVKGRFTISRDNAKNTVYLQMNSLKPEDTAVYYCAADIWYYVRYPTDAYSKFDYCGQGTQVTVSS”, for which the “polyreactivity (PSR sort gate)” value is listed as “low polyreactivity”.
As for “QVQLVESGGGLVQAGGSLRISCAASGSTNEYAMGWYRQAPGKERELVAAITWSGGRTYYADSVKGRFTISRDNAKNTVYLQMNSLKPEDTAVYYCAKAYYARHGRYTYYSWGQGTQVTVSS”, the “polyreactivity (PSR sort gate)” value is “high polyreactivity”.
As to “QVQLVESGGGLVQAGGSLRISCAASGSTSYNYVMGWYRQAPGKERELVAGITWSDDITYYADSVKGRFTISRDNAKNTVYLQMNSLKPEDTAVYYCAAEDRPLYWRFPDEMDYWGQGTQVTVSS”, the “polyreactivity (PSR sort gate)” value is listed as “low polyreactivity”.
For “QVQLVESGGGLVQAGGSLRISCAASGTTFPYNGMGWYRQAPGKERELVASISWSGASTYYADSVKGRFTISRDNAKNTVYLQMNSLKPEDTAVYYCAADPGYYSWGSSQDDYWGQGTQVTVSS”, the “polyreactivity (PSR sort gate)” value is reported as “low polyreactivity”.
Regarding “QVQLVESGGGLVQAGGSLRISCAASGVIFGTYAMRSYRQAPGKERELVAAITSGGTTIYADSVKGRFTISRDNAKNTVYLQMNSLKPEDTAVYYCAARRLYVGYGYDYWGQGTQVTVSS”, the “polyreactivity (PSR sort gate)” value is recorded as “high polyreactivity”.
The value for “QVQLVESGGGLVQAGGSLRISCAAYGSTFGPYAMGWYRQAPGKERELVAAITWNGGSTYYADSVKGRFTISRDNAKNTVYLQMTSLKPEDTAVYYCAAKAYGRKGTYRVNYWGQGTQVTVSS” was “high polyreactivity”; that for “QVQLVESGGGLVQAGGSLRISCADSASIFWGYAMGWYREAPGKERELVATIRNRGGSTYYADSVKGRFTISRDNAKYTVYLQMNSLKPEDTAVYYCAAVSYRQYYGWGNYWGQVTQVTVSS” was “low polyreactivity”; that for “QVQLVESGGGLVQAGGSLRISCAPSGIIFTDYAMGWYRQAPGKERELVAAISSGGGSTYYADSVKGRFTISRDNAKNTVYLQMNSLKPEDTAVYYCAAEGYLISGAGDYLYDYYWGQGTQVTVSS” was “high polyreactivity”.
Take “QVQLVESGGGLVQAGGSLRISCAPSGSTSVQYAMGWYRQAPGKERELVAAIDRSGGSTSYADSVKGRFTISRDNAKNTVYLQMNSLKPEDTAVYYCNADPVRSTYSYDYWGQGTQVTVSS”: the “polyreactivity (PSR sort gate)” value is recorded as “low polyreactivity”.
